Laboratory results reported in US20240252534A1 (AUTOLUS, published 2024).

Legend:
[1] = molecular target: T1, human PSMA expressed on cells (human, UniProt Q04609 1-750); experiment: flow cytometry, MFI against concentration, SupT1-PSMA clone 30 (high)
T1 construct: whole, on cells; also called SupT1-PSMA; SupT1 cells expressing PSMA

[2] = molecular target: T2, Recombinant PSMA-His (sino biologicals) (UniProt Q04609 44-750); experiment: SPR, Biacore T200; VHH-Fc captured on Protein A chip, PSMA-His as analyte, 1:1 Langmuir fit
T2 construct: also called soluble PSMA; recombinant soluble PSMA; not shown: His tag
T2 sequence (Q04609 44-750 limits assumed): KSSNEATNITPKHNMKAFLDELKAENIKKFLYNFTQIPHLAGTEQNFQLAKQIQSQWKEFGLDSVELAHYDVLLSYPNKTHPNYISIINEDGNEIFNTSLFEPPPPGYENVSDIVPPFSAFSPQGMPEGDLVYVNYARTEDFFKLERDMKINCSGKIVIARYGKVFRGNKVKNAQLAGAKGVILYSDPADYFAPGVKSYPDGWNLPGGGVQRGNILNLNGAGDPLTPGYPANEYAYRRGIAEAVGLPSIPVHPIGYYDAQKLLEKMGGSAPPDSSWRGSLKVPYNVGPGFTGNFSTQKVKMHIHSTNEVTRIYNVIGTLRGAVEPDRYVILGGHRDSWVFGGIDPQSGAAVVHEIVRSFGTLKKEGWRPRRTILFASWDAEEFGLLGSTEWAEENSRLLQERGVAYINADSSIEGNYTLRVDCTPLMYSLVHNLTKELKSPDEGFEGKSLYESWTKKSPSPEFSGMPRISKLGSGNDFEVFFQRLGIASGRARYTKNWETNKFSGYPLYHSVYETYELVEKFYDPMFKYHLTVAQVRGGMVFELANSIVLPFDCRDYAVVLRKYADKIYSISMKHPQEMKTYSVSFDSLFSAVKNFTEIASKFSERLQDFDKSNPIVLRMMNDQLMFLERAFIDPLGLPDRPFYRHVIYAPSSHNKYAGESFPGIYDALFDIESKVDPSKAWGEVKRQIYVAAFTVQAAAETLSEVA
Procedure: (§1) Kinetic affinity for soluble PSMA was determined using Biacore T200 instrument. Recombinant purified antibodies were captured on a Protein A chip #7 at 10 μl/min for 60 s, aiming at 100 RU. Recombinant PSMA-His (sino biologicals) dialysed in HBS-P+ buffer was used as analyte from 1 μM with 1:2 serial dilutions for 10 points and flown at 30 μl/min for 150 s with 300 s dissociation time. A double reference subtraction was applied. Sensograms fitted with 1:1 Langmuir model.
Affinity was determined by surface plasmon resonance on a Biacore T200 instrument against recombinant soluble PSMA. Affinities were measured in the nM range for both antibodies (Table 3)

[3] = molecular target: T2, Recombinant PSMA-His (sino biologicals); experiment: SPR, Biacore T200, pH 6; antibody captured on Protein A chip, PSMA-His as analyte, 1:1 Langmuir fit
Procedure: as §1, with “soluble PSMA at different pH was determined” for “soluble PSMA was determined”, “A chip #6, pre-equilibrated the required PH (pH7.4, pH7, pH6.5 and pH6) using buffered HBS-P+, at 10” for “A chip #7 at 10”, “dialysed in HBS-P+buffer and adjusted to the required PH was used” for “dialysed in HBS-P+ buffer was used”

[4] = molecular target: T2, Recombinant PSMA-His (sino biologicals); experiment: SPR, Biacore T200, pH 6.5; antibody captured on Protein A chip, PSMA-His as analyte, 1:1 Langmuir fit
Procedure: as §1, with “soluble PSMA at different pH was determined” for “soluble PSMA was determined”, “A chip #6, pre-equilibrated the required PH (pH7.4, pH7, pH6.5 and pH6) using buffered HBS-P+, at 10” for “A chip #7 at 10”, “dialysed in HBS-P+buffer and adjusted to the required PH was used” for “dialysed in HBS-P+ buffer was used”

[5] = molecular target: T2, Recombinant PSMA-His (sino biologicals); experiment: SPR, Biacore T200, pH 7.4; antibody captured on Protein A chip, PSMA-His as analyte, 1:1 Langmuir fit
Procedure: as §1, with “soluble PSMA at different pH was determined” for “soluble PSMA was determined”, “A chip #6, pre-equilibrated the required PH (pH7.4, pH7, pH6.5 and pH6) using buffered HBS-P+, at 10” for “A chip #7 at 10”, “dialysed in HBS-P+buffer and adjusted to the required PH was used” for “dialysed in HBS-P+ buffer was used”

[6] = molecular target: T2, Recombinant PSMA-His (sino biologicals); experiment: SPR, Biacore T200, pH 7; antibody captured on Protein A chip, PSMA-His as analyte, 1:1 Langmuir fit
Procedure: as §1, with “soluble PSMA at different pH was determined” for “soluble PSMA was determined”, “A chip #6, pre-equilibrated the required PH (pH7.4, pH7, pH6.5 and pH6) using buffered HBS-P+, at 10” for “A chip #7 at 10”, “dialysed in HBS-P+buffer and adjusted to the required PH was used” for “dialysed in HBS-P+ buffer was used”

[7] = molecular target: T1, human PSMA expressed on cells; experiment: flow cytometry histograms, detection aMu-Fc 647, concentration and axis values not given

T1 sequence (Q04609 whole entry): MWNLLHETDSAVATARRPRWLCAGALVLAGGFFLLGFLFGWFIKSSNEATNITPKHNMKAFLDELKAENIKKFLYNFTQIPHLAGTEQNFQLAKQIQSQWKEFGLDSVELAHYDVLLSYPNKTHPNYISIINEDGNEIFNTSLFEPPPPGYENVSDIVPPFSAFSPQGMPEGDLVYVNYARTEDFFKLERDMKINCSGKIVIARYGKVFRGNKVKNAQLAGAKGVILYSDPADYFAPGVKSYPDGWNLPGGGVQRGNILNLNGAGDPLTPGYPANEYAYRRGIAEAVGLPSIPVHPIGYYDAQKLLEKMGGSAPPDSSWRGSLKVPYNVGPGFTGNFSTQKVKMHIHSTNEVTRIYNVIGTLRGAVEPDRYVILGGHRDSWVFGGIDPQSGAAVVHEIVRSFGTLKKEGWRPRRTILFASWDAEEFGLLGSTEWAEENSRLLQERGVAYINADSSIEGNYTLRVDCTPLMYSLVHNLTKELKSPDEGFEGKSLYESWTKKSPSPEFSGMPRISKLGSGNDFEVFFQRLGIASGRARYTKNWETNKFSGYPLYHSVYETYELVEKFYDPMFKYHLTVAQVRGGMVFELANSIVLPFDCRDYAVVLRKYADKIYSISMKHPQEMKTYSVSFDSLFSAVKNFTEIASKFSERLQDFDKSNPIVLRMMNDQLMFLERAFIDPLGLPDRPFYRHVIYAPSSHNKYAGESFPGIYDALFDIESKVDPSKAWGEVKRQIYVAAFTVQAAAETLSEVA

B1: dAb clone G7, C Myc tagged (VHH)
VHH: QVQLQESGGGSVQAGGSLRLSCAASERTFSTYGTGWFRQAPGKEREFVAGISGRGGYTSYIDSVKGRFTTSRDNAKNTVYLQMNSLKPEDTAVYYCAADRRMVWGTVRSPDEYDSWGQGTQVTVSS
notes: Monomeric dAb from IPTG-induced TG1 supernatant, detected with anti-C Myc; also called G07; not shown: C-Myc tag
- EC50 (read off the curve) [1]: ~0.7 µg/mL

B2: G07 VHH-Fc (Fc fusion)
chain: QVQLQESGGGSVQAGGSLRLSCAASERTFSTYGTGWFRQAPGKEREFVAGISGRGGYTSYIDSVKGRFTTSRDNAKNTVYLQMNSLKPEDTAVYYCAADRRMVWGTVRSPDEYDSWGQGTQVTVSS
notes: also called G7; clone G7; not shown: Fc part of the VHH-Fc format
- Kd [2]: 316 nM

B3: 7A12 humanised (antibody, V domains shown)
VH: QVQLVQSGAEVKKPGASVKVSCKASGYTFTSSWMNWVRQAPGQGLEWMGRIYPGDGDTNYAQKFQGRVTMTRDTSISTAYMELSRLRSDDTAVYYCARGTGYLWYFDVWGQGTMVTVSS
VL: EIVLTQSPATLSLSPGERATLSCRASQDINENLAWYQQKPGQAPRLLIYYTSNRATGIPARFSGSGSGRDFTLTISSLEPEDFAVYYCQQYDNLPFTFGQGTKVEIKR
notes: Tested as 'recombinant purified antibody' captured on a Protein A chip; also called hu7A12; AU number 42396
- Kd [3]: 0.532 nM
- Kd [4]: 1.71 nM
- Kd [5]: 3.66 nM
- Kd [6]: 3.3 nM

B4: NGS2 dAb in murine IgG2A-Fc format (Fc fusion)
chain: QVQLQESGGGWVQAGGSLRLSCAASGRTSRTYTMGWFRQAPGKDGVFVAGITWSTWSSDKTQYLDSVNSRFTISRDNARNTVYLQMNNLKPEDTAVYYCAATPRYYGVAVPTTRGPYDYWGQGTQVTVSS
notes: also called clone 2; dAb 2; not shown: murine IgG2A Fc
- binding result [7]: binds

B5: dAb clone B8, C Myc tagged (VHH)
VHH: QVQLQQSGGGLVQAGGSLRLSCAASGRTYGRYVMGWFRQIPGKEREFVAAISWSGSNTNYADSVKGRFTISRDNAKNTLYLQMNSLKPEDTAVYYCAASGQWIIPTTARGYDDWGQGTQVTVSS
notes: Monomeric dAb from IPTG-induced TG1 supernatant, detected with anti-C Myc; also called B08; not shown: C-Myc tag
- EC50 (read off the curve) [1]: ~1 µg/mL

B6: B08 VHH-Fc (Fc fusion)
chain: QVQLQQSGGGLVQAGGSLRLSCAASGRTYGRYVMGWFRQIPGKEREFVAAISWSGSNTNYADSVKGRFTISRDNAKNTLYLQMNSLKPEDTAVYYCAASGQWIIPTTARGYDDWGQGTQVTVSS
notes: also called B8; clone B8; not shown: Fc part of the VHH-Fc format
- Kd [2]: 212 nM

B7: 7A12 (antibody, V domains shown)
VH: QFQLQQSGPELVKPGASVKISCKASGYAFSSSWMNWVRQRPGKGLEWIGRIYPGDGDTTYNGNFKDKATLTAAKSSSTAYIQINSLTSEDSAVYFCARGTGYLWYFDVWGAGTTVTVSS
VL: DIQMTQSPSSLSTSLGGKVTITCKASQDINENVAWYQHKPGKGPRLLIWYTSALQSGIPSRFSGSGSGRDYSFSISNLEPEDIATYYCQQYDNLPFTFGSGTKLEIKR
notes: Tested as 'recombinant purified antibody' captured on a Protein A chip; also called mu7A12; AU number 30531
- Kd [3]: 0.574 nM
- Kd [4]: 1.02 nM
- Kd [5]: 2.29 nM
- Kd [6]: 1.77 nM
